Source: the Immune Epitope Database (IEDB)

molecular target: HLA-A*02:01; test: IEDB peptide-MHC binding, cellular MHC/competitive/fluorescence; ≥ and ≤ were set here for values at or beyond the usual limits of such assays; settings: source organism: Influenza A virus

| Sequence | IC50 [µM] |
| --- | --- |
| ITFMQALQLL | 7.71 |

same assay, conditions: source organism: Vaccinia virus WR

| Sequence | IC50 [µM] |
| --- | --- |
| STFSIGGVI | 23.5 |
| PTNKLQAAVM | 29.5 |
| MTENVEEDLA | 24.5 |
| ELMPIRTDT | ≥ 70 |
| LVITKLREHM | ≥ 70 |
| DMLVNRMQRI | 11.7 |
| SQLSVLSSIT | 11.5 |
| AIIRQRNDEI | 17.4 |
| EVSYFTNKRT | 66.1 |
| LQKVLHVTDT | ≥ 70 |
| TTSDYQDSDV | 11.9 |
| VVSSSTIAT | 11 |
| KQDIVGLDL | 14.2 |
| DLVVLGKVTI | 10.9 |
| LTGSQYYFSM | 5.06 |
| EIEEHMRQT | 39 |
| PVTEDDYKFL | 26.7 |
| EAVKDKNWTV | 14.8 |
| PLSKVHGLDV | 37.9 |
| CIEYVTLNA | 11.1 |
| ILANRDSTL | 11 |
| DLENNLVKL | 16.2 |
| IVISPMGKLT | 52.6 |
| DLFPKQTIQT | 12.9 |

| Sequence | IC50 [µM] |
| --- | --- |
| IIHTGCSQVM | 12.4 |
| LISMYCSKT | 12.5 |
| FVFYKPKHST | ≥ 70 |
| SIPKETNELT | ≥ 70 |
| ELTTLSRHI | 18.6 |
| LAIDFGNGA | 46.6 |
| GAIYKLGSSI | 36.6 |
| DLENLYAVT | 6.55 |
| ATDPDADAIA | ≥ 70 |
| NMNYSDDYM | 11.2 |
| SINVDSTDEL | 60.3 |
| TISMLIEVIL | ≥ 70 |
| RIVVYNPST | 6.05 |
| LIAFSSGTVI | 7.63 |
| VVELEPSLAT | ≥ 70 |
| DVTAKSSFV | 8.56 |
| IMSLNGKKHT | ≥ 70 |
| IAHLLEHLL | 14.1 |
| ELNLSKFMM | 7 |
| PTMNNAKLT | 19.8 |
| NAKLTSTET | 8.67 |
| ALSDACKKIL | 17.9 |
| LITTMDGDKL | ≥ 70 |
| HASPTLFNA | 8.95 |

| Sequence | IC50 [µM] |
| --- | --- |
| VAPMPTASTA | 25 |
| IQETIRSDT | 49.6 |
| HLATPINSRI | 7.9 |
| PVNNNIVLHT | 35.8 |
| TVRSIITDA | 10.2 |
| VVSRHLTNDA | ≥ 70 |
| YTVMVKINPT | 9.38 |
| GINQEDGIII | ≥ 70 |
| STVASAQIHL | 14.2 |
| FINKLNGAM | 57.8 |
| DIDEILGIA | ≥ 70 |
| CVVYPGNGFV | 24.9 |
| ETSFIFIET | 8.82 |
| PTLDNILGIL | 63.7 |
| SADDIQAIM | 12.1 |
| GIVLSNTST | 20.2 |
| ELVFIKPPL | 28 |
| TLQKVLHVT | 5.79 |
| WTVYLIKLI | 7.52 |
| TASSDSLQT | 54.9 |
| IIYNANKLI | 17 |
| TTLSRHIFM | 6.42 |
| LIANIHNHMI | 5.99 |
| VIYPNFSKAM | 17.8 |

| Sequence | IC50 [µM] |
| --- | --- |
| EQTSVFSAT | 16.9 |
| AAITDAAVAV | 5.31 |
| DTFVSSVREV | 5.08 |
| IQKSSSIDV | 15.9 |
| QLPMEDNSDI | 38.5 |
| VAVAAASST | 13.5 |
| AIMFKDDNII | 43.8 |
| PTINKSIYII | 6.11 |
| TIENALVASL | 14.4 |
| VISLLSMITM | 10.8 |
| LIKLIEPVNA | 55.6 |
| PVLPICVRT | 7.3 |
| CIKSHSVSLV | ≥ 70 |
| DVGYEVIGA | 32.3 |
| WLTAVEHIPT | 6.96 |
| MIVLITMLSI | 6.16 |
| IQGKNKRKRV | ≥ 70 |
| ATESDAIRT | 10.8 |
| KIKVTAASPM | ≥ 70 |
| EIFIRYGDA | 30.5 |
| SVETITEKT | ≥ 70 |
| FIKPPLITLT | ≥ 70 |
| RTDTTICLSI | 11 |
| LVKWPLLNI | 9.21 |

| Sequence | IC50 [µM] |
| --- | --- |
| EINATDIII | 17.1 |
| NTFPNITLKI | 10.1 |
| SISKSNAKCI | ≥ 70 |
| VTKTDGIPIT | 27.5 |
| TANVVFRYM | 19.3 |
| KLKYFLGSGA | 7.19 |
| IQESFIRFT | 36.2 |
| SLSKRERQL | 5.77 |
| NIGIVLSNT | 14.6 |
| AASSTHRKVA | ≥ 70 |
| TVSTIDGRIV | ≥ 70 |
| QQALSSFHTT | 29.1 |
| STMEDRPST | 32.6 |
| STPMTEYII | ≥ 70 |
| VTLNASQYA | 5.01 |
| ILHRLHEILT | 12.6 |
| LQTIEIIFT | 9.68 |
| DASLMDMIT | 10.5 |
| VTKTDGIPI | 8.57 |
| TAVNEEWLT | 27 |
| GIKEDETVST | 41.7 |
| AAITDAAVA | 18.6 |
| LVFIKPPLIT | 38.9 |
| GAIKCEGLDV | 49 |

| Sequence | IC50 [µM] |
| --- | --- |
| PIVISKALET | 26.8 |
| PIYYVQKQLV | 18.7 |
| VIKCMIDEGA | 9.87 |
| PVHDILSGL | ≥ 70 |
| DLAFLIKFIT | 6.32 |
| TIDGVSKKNI | ≥ 70 |
| PLITLTNVV | 6.67 |
| IVDDDFISA | 11.5 |
| RQLAKAIIT | 9.8 |
| ETIGNQLYLT | 14.6 |
| EVASTHDWST | ≥ 70 |
| TLSLSKQDI | 11.7 |
| NTSLEIEFT | ≥ 70 |
| DTSCDFESVT | ≥ 70 |
| PITIENALV | ≥ 70 |
| DAFSREYSM | 7.57 |
| SVEKVGINLV | 50 |
| SQHQHLAIM | 13.5 |
| EQEIESLEA | 26.3 |
| EQEIESLEAT | 42.7 |
| VMETDRENA | 8.08 |
| VISPMGKLT | 8.49 |
| NTRDTQQHPI | ≥ 70 |
| YVSTGESSI | 11.4 |

| Sequence | IC50 [µM] |
| --- | --- |
| TTSEVVDML | 6.04 |
| EIRDQYITA | ≥ 70 |
| CISQHQHLAI | 11 |
| YVGSYASNGI | 15.2 |
| PVVFYRSGT | 15.4 |
| KAVIEYDDI | 37.6 |
| SMRLLHCVT | ≥ 70 |
| KIKHKGMSFV | 15.8 |
| KIDKLRQIVA | 32.4 |
| IIDFLEGALI | ≥ 70 |
| TTSSREERVL | ≥ 70 |
| SVFAASKQQM | ≥ 70 |
| KALSDACKKI | 14.3 |
| GATLYRFKHI | ≥ 70 |
| ALNISSTKT | 21.1 |
| VATDPDADAI | ≥ 70 |
| FVKRLGPGT | 39.7 |
| PTMKIFYKHI | ≥ 70 |
| EVSINVDST | ≥ 70 |
| TMKIFYKHI | ≥ 70 |
| MASLLYLIL | 9.14 |
| ITTMDGDKL | 15 |
| VQLVDAIDNI | 13.3 |
| HMLKLQARNI | 24 |

| Sequence | IC50 [µM] |
| --- | --- |
| TVSTIDGRI | ≥ 70 |
| STLPNKSDVL | 46.5 |
| VVRRTMLSDI | 8.52 |
| IIRYPVKRI | 10.1 |
| DIIDFLEGAL | 23.2 |
| DINSDNSNI | 24.8 |
| HLLISFDST | 28.1 |
| KITFALKKL | 17.8 |
| ELTASGGKVL | ≥ 70 |
| KIAISSLNKL | 36.6 |
| LVNAIIDSA | 15.6 |
| AQSKSSLLHA | 32.9 |
| PVSKVKSCL | 14.3 |
| EITELVVEYM | 35.6 |
| ITVTVTFNPV | 6.42 |
| HIIIVALTI | 7.72 |
| QARNIQKIT | 6.7 |
| YASIINRDII | 7.11 |
| NVILSPPINA | 7.25 |
| RLSLNRTIVT | 8.65 |
| ELKTQSPDVL | 61 |
| DMIHNVIDDV | 19.8 |
| EVFINDNGIM | ≥ 70 |
| HLRDQSIKI | 7.25 |

| Sequence | IC50 [µM] |
| --- | --- |
| EQTSVFSATV | 28.6 |
| RTRGPLGIL | 51.3 |
| VTNKEGVKI | 57.4 |
| LVIVSDGPPT | ≥ 70 |
| RTKIPLSKV | ≥ 70 |
| EILTVKRPLL | ≥ 70 |
| TIKISPGIA | 37.4 |
| ILKPRIDKTM | 49.3 |
| GVIFLISVIV | 5.83 |
| NAKCIEYVT | ≥ 70 |
| TAASPMLYQL | ≥ 70 |
| TVELMNLKEL | 50.6 |
| PTASSDSLQT | 16.7 |
| ATYHIIIVA | 6.42 |
| STILNSIDI | 7.49 |
| FASGNSIDDI | 9.21 |
| DANVVSSST | 7.63 |
| FTVTNKEGV | 10.3 |
| QTPIQSDAGM | 34.3 |
| QIHLYYNSNI | 48.7 |
| YIIRRSGCRI | 43.1 |
| STHRKVASST | 51.5 |
| WIKTISKRM | 23.6 |
| VARRKDQTA | 37.7 |

| Sequence | IC50 [µM] |
| --- | --- |
| VTKQDELQAA | 14.3 |
| AIKCEGLDV | 13.6 |
| VISLLSMIT | 5 |
| AVNEEWLTA | 17.3 |
| KVTINNLKMM | 35.7 |
| EVFNREYNNV | 13.2 |
| GILSNYVKT | ≥ 70 |
| KILTREMGFL | 5.47 |
| SANEAAITDA | 10.2 |
| PTNKLQAAV | 6.43 |
| PVKRIIDSEV | 33.8 |
| RVETSPRPTA | 36.5 |
| IQAKTKNFT | ≥ 70 |
| DILANRDST | ≥ 70 |
| DTQQHPIVVL | ≥ 70 |
| NISTIQESFI | ≥ 70 |
| HLSCKSGFT | 6.23 |
| YITSGKNNM | 51.6 |
| AASPMLYQLL | 16 |
| IVRDMLVNRM | 14.4 |
| ATDPDADAI | 39.1 |
| VVYNPSTMST | 57.8 |
| IVALTIMGVI | 5.77 |
| YIRNTLTEKI | 38.4 |

| Sequence | IC50 [µM] |
| --- | --- |
| LVTKYPMDNV | 12.9 |
| TIKCSNLCT | 8.78 |
| LLTKSNNGT | 13.9 |
| YIQETIRSDT | 39.3 |
| CTVPTMNNA | 16.1 |
| LTTLSRHIFM | 5.83 |
| IIRRSGCRI | ≥ 70 |
| FIVISPMGKL | 20 |
| ITDAAVAVAA | 6.51 |
| TAVEHIPTM | 15.9 |
| QQHPIVVLDA | 14.5 |
| PVSTNGKIVM | ≥ 70 |
| LVNLIQAKT | 44.2 |
| DQSIKIGDI | ≥ 70 |
| DVEDLLSYYV | 5.16 |
| NIKNDVVIL | ≥ 70 |
| ELIAFSSGT | 5.34 |
| RINDDSKSI | 13.4 |
| IVWEKKSLVT | 20.7 |
| GVIFLISVI | 12.1 |
